Assay results as given in paper PMC11302681, “Structural Basis of Directional Switching by the Bacterial Flagellum” (Research Square, 2023).

T1: FliF (S. Typhimurium, MS-ring protein) (S. Typhimurium (endogenous in strains …, UniProt P15928 1-560))
T1 construct: FliF, flagellar M-ring protein of Salmonella enterica serovar Typhimurium; endogenous protein in basal bodies; only its C-terminus (residues 523–560) is described in the C-ring models; also called FliFC; FliF C-terminus; source: endogenous, S. Typhimurium strains TH25455 (CCW locked) and TH25631 (CW locked), in purified basal bodies
T1 sequence (looked up): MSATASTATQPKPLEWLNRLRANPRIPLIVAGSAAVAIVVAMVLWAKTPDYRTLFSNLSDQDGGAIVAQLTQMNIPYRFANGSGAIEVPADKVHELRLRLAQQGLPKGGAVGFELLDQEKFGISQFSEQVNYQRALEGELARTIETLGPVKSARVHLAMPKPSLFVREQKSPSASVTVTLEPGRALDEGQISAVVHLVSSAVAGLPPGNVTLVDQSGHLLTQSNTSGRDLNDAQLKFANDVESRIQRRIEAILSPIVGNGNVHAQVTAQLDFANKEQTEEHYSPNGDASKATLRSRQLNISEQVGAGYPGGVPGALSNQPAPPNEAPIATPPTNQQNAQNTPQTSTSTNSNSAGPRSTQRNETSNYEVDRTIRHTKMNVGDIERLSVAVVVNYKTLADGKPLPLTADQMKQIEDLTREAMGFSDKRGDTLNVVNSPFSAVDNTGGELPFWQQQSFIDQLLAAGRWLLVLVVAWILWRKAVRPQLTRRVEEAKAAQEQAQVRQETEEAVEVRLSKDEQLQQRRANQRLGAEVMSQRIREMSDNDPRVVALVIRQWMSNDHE

B1: FliM (S. Typhimurium) (natural protein, UniProt P26418 1-334, looked up)
chain: MGDSILSQAEIDALLNGDSDTKDEPTPGIASDSDIRPYDPNTQRRVVRERLQALEIINERFARQFRMGLFNLLRRSPDITVGAIRIQPYHEFARNLPVPTNLNLIHLKPLRGTGLVVFSPSLVFIAVDNLFGGDGRFPTKVEGREFTHTEQRVINRMLKLALEGYSDAWKAINPLEVEYVRSEMQVKFTNITTSPNDIVVNTPFHVEIGNLTGEFNICLPFSMIEPLRELLVNPPLENSRHEDQNWRDNLVRQVQHSELELVANFADIPLRLSQILKLKPGDVLPIEKPDRIIAHVDGVPVLTSQYGTVNGQYALRVEHLINPILNSLNEEQPK
notes: FliM, flagellar motor switch protein of Salmonella enterica serovar Typhimurium; endogenous protein in basal bodies; The extreme N-terminus is disordered in both structures; also called FliMM; FliMC; source: endogenous, S. Typhimurium strains TH25455 (CCW locked) and TH25631 (CW locked), in purified basal bodies; copies: 34
B2: FliG-ΔPAA (S. Typhimurium, CW-locking deletion of residues 169–171) (natural protein)
chain: MSNLSGTDKSVILLMTIGEDRAAEVFKHLSTREVQALSTAMANVRQISNKQLTDVLSEFEQEAEQFAALNINANEYLRSVLVKALGEERASSLLEDILETRDTTSGIETLNFMEPQSAADLIRDEHPQIIATILVHLKRSQAADILALFDERLRHDVMLRIATFGGVQLAELTEVLNGLLDGQNLKRSKMGGVRTAAEIINLMKTQQEEAVITAVREFDGELAQKIIDEMFLFENLVDVDDRSIQRLLQEVDSESLLIALKGAEPPLREKFLRNMSQRAADILRDDLANRGPVRLSQVENEQKAILLIVRRLAETGEMVIGSGEDTYV
notes: FliG of Salmonella enterica serovar Typhimurium with the CW-locking PAA deletion at residues 169–171; also called CW-locked mutant; source: endogenous locus mutant, S. Typhimurium strain TH25631 (CW locked), in purified basal bodies (sucrose gradient); copies: 34
B3: C. sporogenes FliG C-terminal domain (residues 239–333, of the MotA1–262-FliG239–333 fusion) (domain or fragment)
chain: VFEDIITLDDVAIQRVLREVETKDLALALKGSSEEVANVIFRNQSKRAASSLKEDIEFLGPVRIMDVEKAQQGIVSIIRRLDEAGEIVISRGGED
B4: FliN (S. Typhimurium) (natural protein, UniProt P26419 1-137, looked up)
chain: MSDMNNPSDENTGALDDLWADALNEQKATTTKSAADAVFQQLGGGDVSGAMQDIDLIMDIPVKLTVELGRTRMTIKELLRLTQGSVVALDGLAGEPLDILINGYLIAQGEVVVVADKYGVRITDIITPSERMRRLSR
notes: FliN, flagellar motor switch protein of Salmonella enterica serovar Typhimurium; endogenous protein in basal bodies; Three copies of FliN in each C-ring subunit; also called FliN3; source: endogenous, S. Typhimurium strains TH25455 (CCW locked) and TH25631 (CW locked), in purified basal bodies
B5: FliG (S. Typhimurium, wild type, in the CCW-locked C-ring) (natural protein, UniProt P0A1J9 1-331, looked up)
chain: MSNLSGTDKSVILLMTIGEDRAAEVFKHLSTREVQALSTAMANVRQISNKQLTDVLSEFEQEAEQFAALNINANEYLRSVLVKALGEERASSLLEDILETRDTTSGIETLNFMEPQSAADLIRDEHPQIIATILVHLKRSQAADILALFDERLRHDVMLRIATFGGVQPAALAELTEVLNGLLDGQNLKRSKMGGVRTAAEIINLMKTQQEEAVITAVREFDGELAQKIIDEMFLFENLVDVDDRSIQRLLQEVDSESLLIALKGAEPPLREKFLRNMSQRAADILRDDLANRGPVRLSQVENEQKAILLIVRRLAETGEMVIGSGEDTYV
notes: FliG, flagellar motor switch protein of Salmonella enterica serovar Typhimurium; endogenous protein in basal bodies; residues up to 331 are named; One FliG in each of the about 34 C-ring subunits (C34 is the dominant class); also called FliGN; FliGM; source: endogenous, S. Typhimurium strain TH25455 (CCW locked, ΔcheY), in purified basal bodies (sucrose gradient); copies: 34
B6: C. sporogenes MotA (residues 1–262, of the MotA1–262-FliG239–333 fusion) (domain or fragment, Clostridium sporogenes, UniProt A0A7U4JQH9 1-262, looked up)
chain: MKKRDILTPIGFVLCFGLVLWGMASGGSNLKVFWDVASVFITIGGSMAAMLITYPMDEFKRLLIVIRQTFKDNGMSNIDVIQNFVDLSRKARREGLLSLEDAINNLTDDYMKKGLRMVVDGIEPETIREIMELEIDEMEKRHKSGADMLKTWGGYAPAFGMVGTLIGLIQMLANLTDSSTIASGMGKALITTFYGSLMANAVFNPMGANLMFKSGVEATTREMVLEGVLAIQSGVNPRIMEEKLVSYLSPPERQAYSKVQVS
notes: MotA of Clostridium sporogenes 388 (DSM 795), residues 1–262; several linker lengths were tried) to FliG 239–333 on one chain; also called MotA component; source: E. coli MT56, pT12 vector, co-expressed with MotB, purified (LMNG, Strep-Tactin XT, Superose 6)

Columns and labels:
[1] = target: C. sporogenes MotB with C-terminal Twin-Strep tag (Clostridium sporogenes); assay: cryo-EM structure; C. sporogenes MotA1–262-FliG239–333 fusion co-expressed with MotB-Twin-Strep in E. coli, purified in LMNG; 2.4 Å map
[2] = target: the molecule itself; assay: cryo-EM structure; intact flagellar basal bodies with C-rings from S. Typhimurium TH25455 (ΔcheY, CCW locked), assembled in cells and purified on a sucrose gradient in Triton X-100; C34 class, symmetry expansion and local refinement around 3 subunits, 3.6 Å global
FliM (S. Typhimurium) [3] = target: B1; assay: cryo-EM structure; intact flagellar basal bodies with C-rings from S. Typhimurium TH25631 (fliG-ΔPAA, CW locked), assembled in cells and purified on a sucrose gradient in Triton X-100; C34 class, symmetry expansion and local refinement around 3 subunits, 4.0 Å global; conditions: both partners purified
[4] = target: the molecule itself; assay: as above
[5] = target: T1, FliF (S. Typhimurium, MS-ring protein); assay: as above; conditions: both partners purified
[6] = target: C. sporogenes MotA5MotB2 stator complex (Clostridium sporogenes); assay: cryo-EM structure; C. sporogenes MotA1–262-FliG239–333 fusion co-expressed with MotB-Twin-Strep in E. coli, purified in LMNG; 2.4 Å map
FliM (S. Typhimurium) [7] = target: B1; assay: cryo-EM structure; intact flagellar basal bodies with C-rings from S. Typhimurium TH25455 (ΔcheY, CCW locked), assembled in cells and purified on a sucrose gradient in Triton X-100; C34 class, symmetry expansion and local refinement around 3 subunits, 3.6 Å global; conditions: both partners purified
[8] = target: T1, FliF (S. Typhimurium, MS-ring protein); assay: as above; conditions: both partners purified
[9] = target: the molecule itself; assay: cryo-EM structure; C. sporogenes MotA1–262-FliG239–333 fusion co-expressed with MotB-Twin-Strep in E. coli, purified in LMNG; 2.4 Å map

**Q.** How did the stoichiometry N [1] turn out when “C. sporogenes MotB with C-terminal Twin-Strep tag (natural protein)” was run?
**A.** 2

**Q.** Does B1 bind [2]?
**A.** binds

**Q.** Does B2 bind (FliM (S. Typhimurium) [3])?
**A.** binds

**Q.** What about the “stoichiometry N” value [4] of the same molecule?
**A.** 34

**Q.** Does B2 bind [5]?
**A.** binds

**Q.** Which stoichiometry N [6] does the source give for B3 here?
**A.** < 3

**Q.** Which “stoichiometry N” value (FliM (S. Typhimurium) [7]) does the source give for B4 here?
**A.** 3

**Q.** Does B4 bind [4]?
**A.** binds

**Q.** What does the source list for B5?
**A.** binding result (FliM (S. Typhimurium) [7]): binds; stoichiometry N [2]: 34; binding result [8]: binds

**Q.** With B6 as the molecule, how does the “stoichiometry N” value [9] read?
**A.** 5
